Details: Homo sapiens, Thermal, DSC, reversible: yes, whole UniProt chain shown

B1: Lysozyme C wild type, P61626 (protein)
chain: MKALIVLGLVLLSVTVQGKVFERCELARTLKRLGMDGYRGISLANWMCLAKWESGYNTRATNYNAGDRSTDYGIFQINSRYWCNDGKTPGAVNACHLSCSALLQDNIADAVACAKRVVRDPQGIRAWVAWRNRCQNRDVRQYVQGCGV
Work on B1 yielded a Tm (pH 2.2, glycine hydrochloride 0.05 M) of 57.5 °C, a Tm (pH 2.3, glycine hydrochloride 0.05 M, KCl 0.2 M) of 56.2 °C and a Tm (pH 4, sodium acetate 0.02 M) of 80.1 °C. For the same protein, the Tm (pH 4.5, sodium acetate 0.02 M, KCl 0.2 M) was 77.7 °C.
